The test system of one series is NIH 3T3 cells. The series is described as follows: Activation of resting serum-starved NIH 3T3 cells ([3H]thymidine incorporation). Format: cell-based. How it is done:
FIGS. 6A and 6B show the activation of resting NIH 3T3 cells. In FIG. 6(a), one to four day serum-starved cells activated by serum, retinol, 14-HRR, and the peptide growth factors epidermal growth factor ("EGF") and platelet derived growth factor ("PDGF") are shown. […] NIH 3T3 cells were grown to confluence in Dulbecco's minimal essential medium ("DMEM") containing 10% fetal calf serum in 96-well microliter plates. All media were supplemented with 2 mM glutamine and 100 U/ml of penicillin/streptomycin. Cells were washed once with phosphate-buffered saline solution and incubated for one to four days in 200 μl/well of DMEM media/0.1% fetal calf serum ("starvation media"). On the indicated day, starvation media was replaced with 200 μl/well of insulin, transferrin, linoleic acid, bovine serum albumin ("ITLB") media, with or without fetal calf serum, retinoids, or peptide growth factors at the indicated concentrations. ITLB media is RPMI media (Gibco BRL, Grand Island, N.Y.) containing […] bovine serum albumin (1.2 mg/ml), linoleic acid (10^-6 M), bovine insulin (5 μg/ml), and transferrin (5 μg/ml). [^3 H]thymidine (1.2 μCi per well) was added at the beginning of the experiment, and the thymidine incorporation was determined after 24 h. […]
Cells starved for 4 days in DMEM/0.1% fetal calf serum were activated with 5% fetal calf serum, 2 μM retinol, or 2 μM 14-HRR, and the cumulative thymidine incorporation was determined at the indicated time points. Δcpm corresponds to the increase in [^3 H]thymidine incorporation in the two hour period before the time point shown. […]
Cells starved for 4 days in DMEM/0.1% fetal calf serum were activated with 5% fetal calf serum, 2 μM retinol, or 2 μM 14-HRR. […] The cumulative [^3 H]thymidine incorporation was determined after 24 hours. […]
Confluent NIH 3T3 cells were starved for 1 to 4 days in medium containing 0.1% serum. […] Activation was quantitated by measuring the [^3 H] thymidine incorporated into newly synthesized DNA during the subsequent 24 hours (FIG. 6A). […]
In general terms: Uptake of a labelled nucleoside into DNA is a usual measure of proliferation.

For series [1], the target named is T1, retinol dehydratase (Spodoptera frugiperda, UniProt Q26490).
T1 sequence (Q26490 1-351): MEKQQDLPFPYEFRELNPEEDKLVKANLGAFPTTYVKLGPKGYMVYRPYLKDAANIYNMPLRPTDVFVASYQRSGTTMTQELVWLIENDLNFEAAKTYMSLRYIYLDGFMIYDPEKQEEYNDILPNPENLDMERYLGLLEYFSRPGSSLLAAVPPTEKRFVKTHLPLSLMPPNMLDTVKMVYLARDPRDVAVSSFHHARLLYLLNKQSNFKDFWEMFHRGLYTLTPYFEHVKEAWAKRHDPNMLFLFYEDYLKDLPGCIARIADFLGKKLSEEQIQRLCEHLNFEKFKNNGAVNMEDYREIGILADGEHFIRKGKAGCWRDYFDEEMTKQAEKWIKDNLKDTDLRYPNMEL
The series is described as follows: Fluorimetric titration of recombinant retinol dehydratase with retinol (direct binding, no cofactor). The note with it: recombinant enzyme; for number of (high affinity) binding sites per molecule: retinol titration. How it is done: Binding was monitored by following the fluorescence enhancement of retinol (excitation--330 nm; emission--480 nm, open circles). The fluorescence contribution of free retinol was determined by titration with retinol in the absence of protein (open squares), analyzed by linear regression analysis (dashed line) and subtracted from the titration data to give the corrected titration binding curve (closed circles). The data were fitted (solid line) using an equation derived from simple binding theory.
Retinol is an efficient fluorophore and its interactions with proteins are often accompanied by a marked increase in its fluorescence. This phenomenon reflects movement of retinol from the aqueous solution to a less polar and more restrictive environment within a protein binding site, and has been extensively used to monitor the binding of retinol to binding proteins, as described by Cogan et al., Eur. J. Biochem., 65:71-75 (1976); Ong et al., J. Biol Chem., 253:828-32 (1978); and Noy et al., Biochemistry, 30:6380-86 (1991), which are hereby incorporated by reference.
Recombinant retinol dehydratase (lμM) was titrated with retinol from a concentrated solution in ethanol (final ethanol concentration <2.0%). Binding was monitored by following the fluorescence enhancement of retinol (excitation--330 nm; emission--480 nm, open circles). The fluorescence contribution of free retinol was determined by titration with retinol in the absence of protein (FIG. 5B, open squares), analysed by linear regression analysis (FIG. 5B, dashed line) and subtracted from the titration data to give the corrected titration binding curve (FIG. 5B, closed circles). The data were fitted (FIG. 5B, solid line) using an equation derived from simple binding theory as described in Norris et al., Biochim Bioshys Acta, 1209:10-8 (1994), which is hereby incorporated by reference, to yield the number of binding sites (8%) and the equilibrium dissociation constant (Kd =9 nM).
The derived Kd should thus be considered an upper limit for the actual value. Nevertheless, it agreed with the Km, confirming retinol dehydratase has a high affinity binding site for free retinol.

Series [2] concerns the target T1, retinol dehydratase. The series is described as follows: Retinol dehydratase assay ([3H]-retinol to [3H]-AR, HPLC radiomatic detection); kinetic studies. Format: biochemical. As to conditions: bacterially expressed recombinant enzyme. How it is done:
20-50 μl aliquots of supernatant/column fractions were incubated with 1 μCi of [^3 H]-retinol and 20 μl of high speed supernatant from sonicated Sf-9 cells in 200 μl assay buffer (20 mM Tris.Cl pH 7.5, 150 mM NaCl, I mM MgCI2) for 15-60 minutes at 24° C. […] Samples were delipidated and [^3 H]-AR production quantified by a liquid scintillation radiomatic detector in series with HPLC gradient elution (20 mM Tris pH 7.4/methanol/chloroform) from a C-18 Reverse Phase 201TP54 column (Vydac, Separations Group, Hesperia, Calif.) as described by McClean et al., Clin. Chem., 28:693-96 (1982) and Derguini et al., Angew. Che. Int. Ed. Engl., 33:1839-41 (1994), which are hereby incorporated by reference.
Kinetic studies were performed with native retinol dehydratase (0.1 μg/assay) and ^3 H-retinol in the presence of constant substrate carrier protein concentrations, either delipidated BSA or recombinant cellular retinol binding protein ("CRBP"). The initial rate of AR synthesis at different substrate concentrations was determined by radiomatic detection of ^3 H-AR after HPLC separation.
Carrier protein for retinol (delipidated bovine serum albumin or recombinant human CRBP) was added to reduce nonspecific binding and micelle formation.

B1: EGF: epidermal growth factor, purchased (protein, UniProt P01133 23-1207, looked up)
Pro-epidermal growth factor: PQHWSCPEGTLAGNGNSTCVGPAPFLIFSHGNSIFRIDTEGTNYEQLVVDAGVSVIMDFHYNEKRIYWVDLERQLLQRVFLNGSRQERVCNIEKNVSGMAINWINEEVIWSNQQEGIITVTDMKGNNSHILLSALKYPANVAVDPVERFIFWSSEVAGSLYRADLDGVGVKALLETSEKITAVSLDVLDKRLFWIQYNREGSNSLICSCDYDGGSVHISKHPTQHNLFAMSLFGDRIFYSTWKMKTIWIANKHTGKDMVRINLHSSFVPLGELKVVHPLAQPKAEDDTWEPEQKLCKLRKGNCSSTVCGQDLQSHLCMCAEGYALSRDRKYCEDVNECAFWNHGCTLGCKNTPGSYYCTCPVGFVLLPDGKRCHQLVSCPRNVSECSHDCVLTSEGPLCFCPEGSVLERDGKTCSGCSSPDNGGCSQLCVPLSPVSWECDCFPGYDLQLDEKSCAASGPQPFLLFANSQDIRHMHFDGTDYGTLLSQQMGMVYALDHDPVENKIYFAHTALKWIERANMDGSQRERLIEEGVDVPEGLAVDWIGRRFYWTDRGKSLIGRSDLNGKRSKIITKENISQPRGIAVHPMAKRLFWTDTGINPRIESSSLQGLGRLVIASSDLIWPSGITIDFLTDKLYWCDAKQSVIEMANLDGSKRRRLTQNDVGHPFAVAVFEDYVWFSDWAMPSVMRVNKRTGKDRVRLQGSMLKPSSLVVVHPLAKPGADPCLYQNGGCEHICKKRLGTAWCSCREGFMKASDGKTCLALDGHQLLAGGEVDLKNQVTPLDILSKTRVSEDNITESQHMLVAEIMVSDQDDCAPVGCSMYARCISEGEDATCQCLKGFAGDGKLCSDIDECEMGVPVCPPASSKCINTEGGYVCRCSEGYQGDGIHCLDIDECQLGEHSCGENASCTNTEGGYTCMCAGRLSEPGLICPDSTPPPHLREDDHHYSVRNSDSECPLSHDGYCLHDGVCMYIEALDKYACNCVVGYIGERCQYRDLKWWELRHAGHGQQQKVIVVAVCVVVLVMLLLLSLWGAHYYRTQKLLSKNPKNPYEESSRDVRSRRPADTEDGMSSCPQPWFVVIKEHQDLKNGGQPVAGEDGQAADGSMQPTSWRQEPQLCGMGTEQGCWIPVSSDKGSCPQVMERSFHMPSYGTQTLEGGVEKPHSLLSANPLWQQRALDPPHQMELTQ
modifications: Pro-epidermal growth factor
notes: epidermal growth factor, purchased
Turning to B1, the “activation of growth arrested cells (thymidine incorporation over 24 hours)” value in the series with NIH 3T3 cells (cells deprived of serum for 3 or 4 days) is on record as “had no effect”. Further, in the series on NIH 3T3 cells (data not shown), the “entry of treated cells into the S phase” value is “did not enter the S phase”. Besides, in the series on NIH 3T3 cells (≤500 ng/ml), the “activation of resting cells” value is “unable to activate”.

B2: Recombinant retinol dehydratase: 352 amino acid, 41.5 kDa enzyme of Sf-21 cells, expressed in bacteria with HisTag, SEQ. ID. No. 2 (protein)
chain: MEKQQDLPFPYEFRELNPEDKLVKANLGAFPTTYVKLGPKGYMVYRPYLKDAANIYNMPLRPTDVFVASYQRSGTTMTQELVWLIENDLNFEAAKTYMSLRYIYLDGFMIYDPEKQEEYNDILPNPENLDMERYLGLLEYFSRPGSSLLAAVPPTEKRFVKTHLPLSLMPPNMLDTVKMVYLARDPRDVAVSSFHHARLLYLLNKQSNFKDFWEMFHRGLYTLTPYFEHVKEAWAKRHDPNMLFLFYEDYLKDLPGCIARIADFLGKKLSEEQIQRLCEHLNFEKFKNNGAVNMEDYREIGILADGEHFIRKGKAGCWRDYFDEEMTKQAEKWIKDNLKDTDLRYPNMEL
modifications: His tag
Regarding B2, the “range of binding sites” value with retinol dehydratase [1] (n=3) was 0.06-0.08. The “number of (high affinity) binding sites per molecule” value turned out to be 8% with retinol dehydratase [1] and 7% with retinol dehydratase [1] (listed as recombinant enzyme). Also, the binding sites with retinol dehydratase [1] (titration curves, n=3) is 0.07. Moreover, the “Vmax as compared to the native enzyme purified from Sf-21” value with retinol dehydratase [2] was determined as 10%.

The record behind these values is patent publication US5928931A, “Isolation, purification and cloning of retinol dehydratase” (Cornell Research Foundation, Inc., priority 1997, dated 1999).
